The values that follow are results of earlier work, collected in publication PMC6893859 (Regulatory toxicology and pharmacology : RTP, 2018).

In one data set the test system is patients. Particulars: human, in vivo.
The next data set concerns humans. Particulars: human, in vivo.

For “CER-001: complex between recombinant human ApoA-I and dipalmitoyl phosphatidylcholine and sphingomyelin”, the safety and tolerability entry with patients was “safe and well tolerated”. As for “CSL-112: reformulated reconstituted and purified ApoA1 (from CSL-111)”, the tolerability entry in the data set with humans was “well tolerated”.
